Laboratory results taken from CN112159475A (NANJING KAEDI BIOTECH INC, dated 2021).

T1: 融合至人IgG1 Fc段的人Siglec-15胞外结构域的重组蛋白Siglec-15-Fc (human, UniProt Q6ZMC9 20-263)
T1 construct: extracellular domain; also called 人Siglec-15重组蛋白; Siglec-15-Fc重组蛋白; not shown: human IgG1 Fc segment
T1 sequence (looked up): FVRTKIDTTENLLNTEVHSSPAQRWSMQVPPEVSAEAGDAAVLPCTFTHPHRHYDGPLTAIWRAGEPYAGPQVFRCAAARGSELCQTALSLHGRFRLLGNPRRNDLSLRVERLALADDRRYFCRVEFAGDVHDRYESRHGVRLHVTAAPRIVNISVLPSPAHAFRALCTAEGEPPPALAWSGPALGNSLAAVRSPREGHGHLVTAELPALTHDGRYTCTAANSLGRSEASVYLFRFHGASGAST

B1: KD075-C9 (antibody, V domains shown)
VH: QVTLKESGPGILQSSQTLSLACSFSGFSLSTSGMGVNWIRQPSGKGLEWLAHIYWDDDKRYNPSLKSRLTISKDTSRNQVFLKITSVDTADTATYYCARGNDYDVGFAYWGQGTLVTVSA
VL: DIVMTQSHKFMSTSVGDRVSITCKASQDVSTAVVWYQQKPGQSPKLLIDSASYRYTGVPDRFTGSGSGTDFTFTISSVQAEDLAVYYCQQHYSTPRTFGGGTKLEIK
B2: KD075-C18 (antibody, V domains shown)
VH: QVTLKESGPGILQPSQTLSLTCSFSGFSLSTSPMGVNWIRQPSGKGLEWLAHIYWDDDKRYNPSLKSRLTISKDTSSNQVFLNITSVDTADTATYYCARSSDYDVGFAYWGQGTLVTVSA
VL: DIVMTQSHKFMSTSVGDRVSITCKASQDVSTAVAWYQQKLGQSPKLLISSASYRYTGVPDRFTGSGSGTDFTFTISSVQAEDLAVYYCQQHYSTPRTFGGGTKLEIK
B3: KD075-C30 (antibody, V domains shown)
VH: DVQLVESGGGLVQPGGSRKLSCAASGFTFSSFGMHWVRQAPEKGLEWVAYISSGSSSIYYADTVKGRFTISRDNPKNTLFLQMTSLRSEDTAMYYCARTFPMDYWGQGTSVTVSS
VL: QAVVTQESALTTSPGETVTLTCRSSTGAVTISNYANWVQEKPDHLFTGLIGGTYNRSPGVPARFSGSLIGDKAALTITGAQTEDEAIYFCALWYSNHWVFGGGTKLTVL
B4: KD075-C31 (antibody, V domains shown)
VH: DVQLVESGGGLVQPGTSRKLSCTASGFTFSSFGMHWVRQAPEKGLEWVAYISSGSSSIYYADTVKGRFTISRDNPKNTLFLQMTSLRSEDTAIYYCARTFPMDYWGQGTSVTVSS
VL: QAVVTQESALTTSPGETVTLTCRSSTGAVTISNYANWVQEKPDHLFTGLIGGTYNRSPGVPARFSGSLIGDKAALTITGAQTEDEAIYFCALWYSNHWVFGGGTKLTVL
B5: KD075-C40 (antibody, V domains shown)
VH: EVRLQQSGPELVKPGASVKISCKASGYTFTDYNIHWMKQSHGKSLEWIGYIYPSFGGTAYNQKFKSKATLTVDNSSSTAYMEFRSLTSEDSAVYFCAVYGNYEGFAYWGQGTLVTVSA
VL: ENVLTQSPAIMSASLGEKVTMSCRASSSVNYMYWYQQKSDASPKLWIYYTSNLAPGVPARFSGSGSGNSYYLTISSMEGEDAATYYCQQFTSSPWTFGGGTKLEIK
B6: KD075-C46 (antibody, V domains shown)
VH: EVKLVESEGGLVQPGSSMKLSCTASGFTFSDYYMAWVRQVPEKGLEWVAKINYDGSSTYYLDSLKSRFIISRDNAKNILYLQMSSLKSEDTATYYCARSYDYDGYYFDYWGQGTTLTVSS
VL: DIVLTQSPASLAMSLGKRATISCRASESVSIIGTNLIHWYQQKPGQPPKLLIYHASNLETGVPARFSGSGSRTDFTLTIDPVEEDDVAIYYCLQSRKIPWTFGGGTKLEIK
B7: KD075-C52 (antibody, V domains shown)
VH: EVQLVESGGGLVKPGGSLKLSCAASGFTFSYYAMSWVRQTPEKRLEWVATVSDVDDYTYYPDNVKGRFNISRDNAKNNLYLQMRHLKSEDTAMYYCVRDGSYGWYFDVWGTGTTVTVSS
VL: DIVMTQSPSSLTVTAGEKVTMSCKSSQSLLNSGNQKNYLTWYQQKPGQTPKLLIYWASTRESGVPDRFTGSGSGTDFTLTISSVQAEDLAVYYCQNDYSYPLTFGTGTKLELK

molecular target: T1, 融合至人IgG1 …; test: indirect ELISA, plate coated with 0.5 ug/ml Siglec-15-Fc, purified antibody titrated from 10 ug/ml

B1 and B2 are within 1.5-fold of each other in EC50: 1.97 ng/mL for the first, 2.3 ng/mL for the second.

B3 and B4 are within 1.5-fold of each other in EC50: 2.27 ng/mL for the first, 2.4 ng/mL for the second.

B5 and B6 are within 1.5-fold of each other in EC50: 2.41 ng/mL for the first, 2.29 ng/mL for the second.

Binder B7 has an EC50 of 2.25 ng/mL.
